Measurements from the supplement of paper PMC9112550, “Optimization of the antimicrobial peptide Bac7 by deep mutational scanning” (BMC Biology, 2022).

Tested on: Escherichia coli TOP10
Experiment: shrunken log2 fold change of peptide-encoding DNA abundance (4.5 h post-induction vs induction); higher = less antimicrobial activity (less host growth inhibition)
Conditions: time post-induction: 4.5 h; library: site-saturation at positions 5, 18, 19, 20
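Also: peptides expressed intracellularly from a pBAD plasmid library in pooled LB shake-flask culture, induced with 0.3% L-arabinose, DNA abundance read by NGS, three biological replicates, DESeq2 with apeglm shrinkage.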

Sequence | shrunken log2 fold change
RRIRKRPPRLPRPRPRPFGTPRP | -0.0368
RRIRKRPPRLPRPRPRPFHIPRP | -0.025
RRIRKRPPRLPRPRPRPFIEPRP | -0.205
RRIRKRPPRLPRPRPRPFIGPRP | -0.0147
RRIRKRPPRLPRPRPRPFISPRP | -0.113
RRIRKRPPRLPRPRPRPFLIPRP | -0.19
RRIRKRPPRLPRPRPRPFLSPRP | -0.0256
RRIRKRPPRLPRPRPRPFMEPRP | -0.00271
RRIRKRPPRLPRPRPRPFNGPRP | -0.407
RRIRKRPPRLPRPRPRPFNSPRP | -0.0903
RRIRKRPPRLPRPRPRPFPGPRP | -0.0018
RRIRKRPPRLPRPRPRPFPIPRP | -0.0405
RRIRKRPPRLPRPRPRPFQMPRP | -0.28
RRIRKRPPRLPRPRPRPFRAPRP | 0.201
RRIRKRPPRLPRPRPRPFRSPRP | 0.0452
RRIRKRPPRLPRPRPRPFSRPRP | 0.238
RRIRKRPPRLPRPRPRPFVVPRP | -0.00719
RRIRKRPPRLPRPRPRPFWYPRP | 0.0709
RRIRKRPPRLPRPRPRPGAAPRP | 1.54
RRIRKRPPRLPRPRPRPGDAPRP | 0.571
RRIRKRPPRLPRPRPRPGDQPRP | -0.00987
RRIRKRPPRLPRPRPRPGDVPRP | 0.278
RRIRKRPPRLPRPRPRPGEDPRP | 0.0621
RRIRKRPPRLPRPRPRPGEQPRP | -0.0435
RRIRKRPPRLPRPRPRPGEVPRP | 0.268

Sequence | shrunken log2 fold change
RRIRKRPPRLPRPRPRPGFAPRP | 0.718
RRIRKRPPRLPRPRPRPGFDPRP | 0.98
RRIRKRPPRLPRPRPRPGHCPRP | 0.00694
RRIRKRPPRLPRPRPRPGKMPRP | -0.0991
RRIRKRPPRLPRPRPRPGKQPRP | 0.599
RRIRKRPPRLPRPRPRPGLFPRP | 0.556
RRIRKRPPRLPRPRPRPGNCPRP | 0.0147
RRIRKRPPRLPRPRPRPGPQPRP | 0.561
RRIRKRPPRLPRPRPRPGQWPRP | 0.181
RRIRKRPPRLPRPRPRPGRWPRP | 0.622
RRIRKRPPRLPRPRPRPGSDPRP | 0.737
RRIRKRPPRLPRPRPRPGTQPRP | 0.114
RRIRKRPPRLPRPRPRPGVLPRP | 0.293
RRIRKRPPRLPRPRPRPGWSPRP | 3
RRIRKRPPRLPRPRPRPGYGPRP | 0.13
RRIRKRPPRLPRPRPRPHALPRP | 0.154
RRIRKRPPRLPRPRPRPHCAPRP | -0.00229
RRIRKRPPRLPRPRPRPHCDPRP | 0.266
RRIRKRPPRLPRPRPRPHCMPRP | 0.159
RRIRKRPPRLPRPRPRPHDCPRP | 0.108
RRIRKRPPRLPRPRPRPHEFPRP | -0.0156
RRIRKRPPRLPRPRPRPHFSPRP | -0.0531
RRIRKRPPRLPRPRPRPHGFPRP | 0.056
RRIRKRPPRLPRPRPRPHGGPRP | -0.0161
RRIRKRPPRLPRPRPRPHGRPRP | 0.239

Sequence | shrunken log2 fold change
RRIRKRPPRLPRPRPRPHHQPRP | 0.00598
RRIRKRPPRLPRPRPRPHIVPRP | -0.0154
RRIRKRPPRLPRPRPRPHKLPRP | 0.00078
RRIRKRPPRLPRPRPRPHLGPRP | -0.00957
RRIRKRPPRLPRPRPRPHLPPRP | 0.0692
RRIRKRPPRLPRPRPRPHMRPRP | 0.0568
RRIRKRPPRLPRPRPRPHQAPRP | -0.137
RRIRKRPPRLPRPRPRPHRDPRP | -0.136
RRIRKRPPRLPRPRPRPHREPRP | -0.0175
RRIRKRPPRLPRPRPRPHRKPRP | -0.0475
RRIRKRPPRLPRPRPRPHSDPRP | 0.0765
RRIRKRPPRLPRPRPRPHTEPRP | 0.0507
RRIRKRPPRLPRPRPRPHWFPRP | 0.096
RRIRKRPPRLPRPRPRPHWLPRP | 0.148
RRIRKRPPRLPRPRPRPHWMPRP | 0.0937
RRIRKRPPRLPRPRPRPHYPPRP | -0.16
RRIRKRPPRLPRPRPRPHYVPRP | -0.0482
RRIRKRPPRLPRPRPRPIAAPRP | 0.317
RRIRKRPPRLPRPRPRPIAPPRP | 0.718
RRIRKRPPRLPRPRPRPICIPRP | 0.163
RRIRKRPPRLPRPRPRPICPPRP | -0.122
RRIRKRPPRLPRPRPRPIFIPRP | -0.173
RRIRKRPPRLPRPRPRPIFQPRP | 0.266
RRIRKRPPRLPRPRPRPIFYPRP | -0.0532
RRIRKRPPRLPRPRPRPIHTPRP | 0.101

Sequence | shrunken log2 fold change
RRIRKRPPRLPRPRPRPIILPRP | -0.11
RRIRKRPPRLPRPRPRPILFPRP | -0.0861
RRIRKRPPRLPRPRPRPILSPRP | 0.00626
RRIRKRPPRLPRPRPRPILWPRP | 0.149
RRIRKRPPRLPRPRPRPIPCPRP | 0.276
RRIRKRPPRLPRPRPRPIPDPRP | 0.2
RRIRKRPPRLPRPRPRPIPSPRP | 0.422
RRIRKRPPRLPRPRPRPIQSPRP | -0.0332
RRIRKRPPRLPRPRPRPIREPRP | 0.057
RRIRKRPPRLPRPRPRPIRYPRP | -0.118
RRIRKRPPRLPRPRPRPITIPRP | -0.165
RRIRKRPPRLPRPRPRPIVIPRP | -0.0175
RRIRKRPPRLPRPRPRPIVTPRP | 0.102
RRIRKRPPRLPRPRPRPIVVPRP | 0.0157
RRIRKRPPRLPRPRPRPKAWPRP | -0.0159
RRIRKRPPRLPRPRPRPKCHPRP | 0.182
RRIRKRPPRLPRPRPRPKCLPRP | 0.118
RRIRKRPPRLPRPRPRPKECPRP | 0.121
RRIRKRPPRLPRPRPRPKENPRP | 0.189
RRIRKRPPRLPRPRPRPKEPPRP | 0.074
RRIRKRPPRLPRPRPRPKGTPRP | 0.00171
RRIRKRPPRLPRPRPRPKILPRP | 0.362
RRIRKRPPRLPRPRPRPKKEPRP | 0.00375
RRIRKRPPRLPRPRPRPKKIPRP | 0.431
RRIRKRPPRLPRPRPRPKLKPRP | 0.585

Sequence | shrunken log2 fold change
RRIRKRPPRLPRPRPRPKMLPRP | 0.185
RRIRKRPPRLPRPRPRPKQPPRP | -0.0354
RRIRKRPPRLPRPRPRPKTLPRP | 0.239
RRIRKRPPRLPRPRPRPKTRPRP | 0.444
RRIRKRPPRLPRPRPRPKVHPRP | 0.243
RRIRKRPPRLPRPRPRPKVNPRP | 0.0581
RRIRKRPPRLPRPRPRPKWRPRP | 0.887
RRIRKRPPRLPRPRPRPKYEPRP | 0.057
RRIRKRPPRLPRPRPRPKYSPRP | -0.13
RRIRKRPPRLPRPRPRPLDYPRP | -0.202
RRIRKRPPRLPRPRPRPLEEPRP | 1.76
RRIRKRPPRLPRPRPRPLERPRP | 0.529
RRIRKRPPRLPRPRPRPLFAPRP | 0.594
RRIRKRPPRLPRPRPRPLFRPRP | 0.696
RRIRKRPPRLPRPRPRPLKGPRP | -0.022
RRIRKRPPRLPRPRPRPLKVPRP | 0.237
RRIRKRPPRLPRPRPRPLMMPRP | 0.207
RRIRKRPPRLPRPRPRPLNTPRP | 0.143
RRIRKRPPRLPRPRPRPLQIPRP | 0.0389
RRIRKRPPRLPRPRPRPLRPPRP | 1.01
RRIRKRPPRLPRPRPRPLSTPRP | 0.025
RRIRKRPPRLPRPRPRPLTHPRP | 0.0737
RRIRKRPPRLPRPRPRPLTKPRP | 0.457
RRIRKRPPRLPRPRPRPLTRPRP | 0.31
RRIRKRPPRLPRPRPRPLVGPRP | 0.0773

Sequence | shrunken log2 fold change
RRIRKRPPRLPRPRPRPLVPPRP | 0.516
RRIRKRPPRLPRPRPRPLWIPRP | 0.134
RRIRKRPPRLPRPRPRPMAGPRP | 0.0722
RRIRKRPPRLPRPRPRPMAKPRP | 0.545
RRIRKRPPRLPRPRPRPMDFPRP | -0.0018
RRIRKRPPRLPRPRPRPMDRPRP | 0.0586
RRIRKRPPRLPRPRPRPMDSPRP | -0.0874
RRIRKRPPRLPRPRPRPMFPPRP | -0.187
RRIRKRPPRLPRPRPRPMHIPRP | 0.078
RRIRKRPPRLPRPRPRPMHQPRP | 0.003
RRIRKRPPRLPRPRPRPMIWPRP | -0.00177
RRIRKRPPRLPRPRPRPMKFPRP | -0.0265
RRIRKRPPRLPRPRPRPMKRPRP | 0.138
RRIRKRPPRLPRPRPRPMLIPRP | 0.0347
RRIRKRPPRLPRPRPRPMMTPRP | 0.452
RRIRKRPPRLPRPRPRPMPKPRP | 0.421
RRIRKRPPRLPRPRPRPMQGPRP | -0.00992
RRIRKRPPRLPRPRPRPMQNPRP | 0.282
RRIRKRPPRLPRPRPRPMRAPRP | 1.23
RRIRKRPPRLPRPRPRPMRKPRP | 1.44
RRIRKRPPRLPRPRPRPMRVPRP | 0.848
RRIRKRPPRLPRPRPRPMSPPRP | -0.0332
RRIRKRPPRLPRPRPRPMTDPRP | 0.103
RRIRKRPPRLPRPRPRPMTKPRP | 0.397
RRIRKRPPRLPRPRPRPMVKPRP | 0.427
